This is an account of results in publication PMC5125011, “Soluble Siglec-5 associates to PSGL-1 and displays anti-inflammatory activity” (Scientific Reports, 2016).

Series [1] concerns the target T1, human soluble recombinant PSGL1 fused to human Fc (human, UniProt Q14242 18-320).
T1 construct: P-selectin glycoprotein ligand-1 (PSGL1), human, soluble ectodomain; Sialylated glycoprotein; also called sPSGL1/Fc; soluble PSGL1/Fc; source: bought: R&D Systems (cat# 3345-PS)
T1 sequence (looked up): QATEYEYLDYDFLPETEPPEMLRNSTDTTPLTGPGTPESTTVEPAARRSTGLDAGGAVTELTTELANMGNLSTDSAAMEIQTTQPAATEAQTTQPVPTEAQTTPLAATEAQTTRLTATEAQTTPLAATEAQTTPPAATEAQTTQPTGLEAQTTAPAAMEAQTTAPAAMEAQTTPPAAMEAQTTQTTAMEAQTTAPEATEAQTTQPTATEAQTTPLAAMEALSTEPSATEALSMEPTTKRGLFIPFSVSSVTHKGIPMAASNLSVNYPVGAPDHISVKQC
The experiment in a line: ELISA; sPSGL1/Fc (0.25 μg/well) adsorbed to microtiter wells; Tris-buffered saline with 2.5 mM CaCl2, 0.1% Tween-20, 3% BSA; bound sSiglec-5 probed with biotin-labeled polyclonal anti-Siglec-5 antibodies, bound P-selectin with a monoclonal anti-P-selectin antibody; controls with EDTA (5 mM) or polyclonal anti-Siglec-5 antibodies (6 μM) inhibited binding. As to conditions: both partners purified. (In general: An ELISA detects its analyte on a solid surface through an enzyme-linked reagent.)

Series [2] deals with the molecule itself. As to the kind of experiment: SDS-PAGE under non-reduced and reduced conditions; purified sSiglec-5/C4BP, Coomassie-staining; about 525 kDa non-reduced, 75 kDa reduced; heptamer to single chains.

B1: Recombinant soluble Siglec-5 fused to human Fc (Fc fusion, UniProt O15389 17-441, looked up)
chain: EKPVYELQVQKSVTVQEGLCVLVPCSFSYPWRSWYSSPPLYVYWFRDGEIPYYAEVVATNNPDRRVKPETQGRFRLLGDVQKKNCSLSIGDARMEDTGSYFFRVERGRDVKYSYQQNKLNLEVTALIEKPDIHFLEPLESGRPTRLSCSLPGSCEAGPPLTFSWTGNALSPLDPETTRSSELTLTPRPEDHGTNLTCQMKRQGAQVTTERTVQLNVSYAPQTITIFRNGIALEILQNTSYLPVLEGQALRLLCDAPSNPPAHLSWFQGSPALNATPISNTGILELRRVRSAEEGGFTCRAQHPLGFLQIFLNLSVYSLPQLLGPSCSWEAEGLHCRCSFRARPAPSLCWRLEEKPLEGNSSQGSFKVNSSSAGPWANSSLILHGGLSSDLKVSCKAWNIYGSQSGSVLLLQGRSNLGTGVVPAAL
notes: Siglec-5, soluble; also called sSiglec-5/Fc; sSg-5/Fc; source: bought: R&D Systems (cat# 1072-SL), produced in mouse myeloma cell-line NS0
B1: the EC50 in series [1] is 49 ± 11 nM.

B2: heptameric Siglec-5/C4BP fusion protein (other, UniProt O15389 17-434, looked up)
chain: EKPVYELQVQKSVTVQEGLCVLVPCSFSYPWRSWYSSPPLYVYWFRDGEIPYYAEVVATNNPDRRVKPETQGRFRLLGDVQKKNCSLSIGDARMEDTGSYFFRVERGRDVKYSYQQNKLNLEVTALIEKPDIHFLEPLESGRPTRLSCSLPGSCEAGPPLTFSWTGNALSPLDPETTRSSELTLTPRPEDHGTNLTCQMKRQGAQVTTERTVQLNVSYAPQTITIFRNGIALEILQNTSYLPVLEGQALRLLCDAPSNPPAHLSWFQGSPALNATPISNTGILELRRVRSAEEGGFTCRAQHPLGFLQIFLNLSVYSLPQLLGPSCSWEAEGLHCRCSFRARPAPSLCWRLEEKPLEGNSSQGSFKVNSSSAGPWANSSLILHGGLSSDLKVSCKAWNIYGSQSGSVLLLQGRSNLGTETPEGCEQVLTGKRLMQCLPNPEDVKMALEVYKLSLEIEQLELQRDSARQSTLDKEL
notes: Siglec-5 ectodomain, residues 17-434; also called sSiglec-5/C4BP; sSg-5/C4BP
Regarding B2, the “stoichiometry N” value in series [2] was 7. Moreover, the 50% effective concentration (EC50) in series [1] was 8 ± 1 nM.

The term EC50 denotes the concentration needed to bring the measured effect to its halfway point. What is called stoichiometry N is the number of molecules, sites or subunits per partner or assembly.
